Tests used:
Experiment in all cases: two-hybrid; LexA-Cdc1 bait (pBTM116 or pBTM116BN) with Gal4-Pol3 prey and co-expressed c-myc-tagged Cdc27 (pAA-Cdc27) in S. cerevisiae CTY10-5d; ONPG liquid culture beta-galactosidase assay, mean of triplicates, as percent of wild-type Cdc1
Conditions in all cases: partners not purified
[1] = target: T1, Cdc1-J2 (Schizosaccharomyces pombe, UniProt P87324 1-462, Tyr-ArgGlyThrProTyr-Ser)
T1 construct: Cdc1, S. pombe, with a pentapeptide inserted after residue 25; also called J18; J20; source: yeast two-hybrid fusion, in S. cerevisiae CTY10-5d
T1 sequence (looked up): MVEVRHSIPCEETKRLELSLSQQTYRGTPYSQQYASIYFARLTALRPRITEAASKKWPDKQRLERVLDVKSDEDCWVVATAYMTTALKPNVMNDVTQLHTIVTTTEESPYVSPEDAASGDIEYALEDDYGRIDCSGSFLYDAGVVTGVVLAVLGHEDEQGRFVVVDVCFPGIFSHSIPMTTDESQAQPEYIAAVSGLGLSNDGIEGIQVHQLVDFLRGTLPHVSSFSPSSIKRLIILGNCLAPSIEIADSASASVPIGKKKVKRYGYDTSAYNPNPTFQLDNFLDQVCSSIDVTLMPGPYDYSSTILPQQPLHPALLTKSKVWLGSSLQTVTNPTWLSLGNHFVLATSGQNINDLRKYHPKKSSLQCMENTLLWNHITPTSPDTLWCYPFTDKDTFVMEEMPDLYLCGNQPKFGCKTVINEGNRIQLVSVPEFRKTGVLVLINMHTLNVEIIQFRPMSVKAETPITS

[2] = target: T2, Cdc1-A6 (Schizosaccharomyces pombe, UniProt P87324 1-462, Pro329Ala)
T2 construct: Cdc1, S. pombe, point mutant; source: yeast two-hybrid fusion, in S. cerevisiae CTY10-5d
T2 sequence (looked up): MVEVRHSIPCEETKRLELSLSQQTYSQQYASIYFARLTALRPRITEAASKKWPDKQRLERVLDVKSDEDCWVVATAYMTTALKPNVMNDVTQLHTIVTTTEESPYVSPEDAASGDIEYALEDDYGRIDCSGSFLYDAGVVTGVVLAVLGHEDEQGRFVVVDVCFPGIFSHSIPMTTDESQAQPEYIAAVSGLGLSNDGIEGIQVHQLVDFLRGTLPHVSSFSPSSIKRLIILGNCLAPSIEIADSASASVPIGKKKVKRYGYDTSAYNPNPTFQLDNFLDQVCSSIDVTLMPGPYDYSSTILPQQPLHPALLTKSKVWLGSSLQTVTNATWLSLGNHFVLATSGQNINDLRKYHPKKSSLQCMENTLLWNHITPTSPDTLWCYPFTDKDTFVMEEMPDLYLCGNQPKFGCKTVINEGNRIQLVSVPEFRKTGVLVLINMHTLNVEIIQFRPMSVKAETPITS

[3] = target: T3, Cdc1-E5 (Schizosaccharomyces pombe, UniProt P87324 1-462, Val-MetGlyTyrProVal-Met)
T3 construct: Cdc1, S. pombe, with a pentapeptide inserted after residue 86; source: yeast two-hybrid fusion, in S. cerevisiae CTY10-5d
T3 sequence (looked up): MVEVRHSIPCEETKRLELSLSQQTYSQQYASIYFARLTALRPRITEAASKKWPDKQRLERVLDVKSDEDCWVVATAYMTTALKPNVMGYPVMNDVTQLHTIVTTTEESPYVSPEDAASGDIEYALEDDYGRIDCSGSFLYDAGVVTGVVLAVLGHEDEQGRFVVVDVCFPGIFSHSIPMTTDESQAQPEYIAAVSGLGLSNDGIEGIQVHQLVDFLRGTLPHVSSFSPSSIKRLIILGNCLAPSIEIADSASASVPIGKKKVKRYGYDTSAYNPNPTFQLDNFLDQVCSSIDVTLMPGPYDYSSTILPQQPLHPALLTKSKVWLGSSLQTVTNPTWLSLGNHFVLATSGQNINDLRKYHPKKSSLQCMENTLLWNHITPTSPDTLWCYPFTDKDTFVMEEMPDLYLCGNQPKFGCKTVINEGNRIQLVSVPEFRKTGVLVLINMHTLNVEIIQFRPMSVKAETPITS

[4] = target: T4, Cdc1-A4 (Schizosaccharomyces pombe, UniProt P87324 1-462, Pro303Ala)
T4 construct: Cdc1, S. pombe, point mutant; source: yeast two-hybrid fusion, in S. cerevisiae CTY10-5d
T4 sequence (looked up): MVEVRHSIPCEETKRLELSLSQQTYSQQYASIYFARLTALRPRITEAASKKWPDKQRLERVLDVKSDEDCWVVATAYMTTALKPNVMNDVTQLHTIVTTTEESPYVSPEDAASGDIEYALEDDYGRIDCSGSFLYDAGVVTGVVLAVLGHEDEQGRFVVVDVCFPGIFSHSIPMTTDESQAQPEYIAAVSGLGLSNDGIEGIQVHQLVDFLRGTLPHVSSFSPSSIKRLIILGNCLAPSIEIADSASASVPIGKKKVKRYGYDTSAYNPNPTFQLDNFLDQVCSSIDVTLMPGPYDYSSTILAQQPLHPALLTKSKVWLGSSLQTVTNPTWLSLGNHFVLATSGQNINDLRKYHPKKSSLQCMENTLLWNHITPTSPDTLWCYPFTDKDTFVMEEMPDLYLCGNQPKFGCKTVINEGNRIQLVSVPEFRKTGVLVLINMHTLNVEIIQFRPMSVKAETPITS

B1: Pol3 (fission yeast DNA polymerase delta catalytic subunit) (natural protein, Schizosaccharomyces pombe, UniProt P30316 1-1086, looked up)
chain: MTDRSSNEGVVLNKENYPFPRRNGSIHGEITDVKRRRLSERNGYGDKKGSSSKEKTSSFEDELAEYASQLDQDEIKSSKDQQWQRPALPAINPEKDDIYFQQIDSEEFTEGSVPSIRLFGVTDNGNSILVHVVGFLPYFYVKAPVGFRPEMLERFTQDLDATCNGGVIDHCIIEMKENLYGFQGNEKSPFIKIFTTNPRILSRARNVFERGEFNFEELFPVGVGVTTFESNTQYLLRFMIDCDVVGMNWIHLPASKYQFRYQNRVSNCQIEAWINYKDLISLPAEGQWSKMAPLRIMSFDIECAGRKGVFPDPSIDPVIQIASIVTQYGDSTPFVRNVFCVDTCSQIVGTQVYEFQNQAEMLSSWSKFVRDVDPDVLIGYNICNFDIPYLLDRAKSLRIHNFPLLGRIHNFFSVAKETTFSSKAYGTRESKTTSIPGRLQLDMLQVMQRDFKLRSYSLNAVCSQFLGEQKEDVHYSIITDLQNGTADSRRRLAIYCLKDAYLPQRLMDKLMCFVNYTEMARVTGVPFNFLLARGQQIKVISQLFRKALQHDLVVPNIRVNGTDEQYEGATVIEPIKGYYDTPIATLDFSSLYPSIMQAHNLCYTTLLDSNTAELLKLKQDVDYSVTPNGDYFVKPHVRKGLLPIILADLLNARKKAKADLKKETDPFKKAVLDGRQLALKVSANSVYGFTGATNGRLPCLAISSSVTSYGRQMIEKTKDVVEKRYRIENGYSHDAVVIYGDTDSVMVKFGVKTLPEAMKLGEEAANYVSDQFPNPIKLEFEKVYFPYLLISKKRYAGLFWTRTDTYDKMDSKGIETVRRDNCPLVSYVIDTALRKMLIDQDVEGAQLFTKKVISDLLQNKIDMSQLVITKALSKTDYAAKMAHVELAERMRKRDAGSAPAIGDRVAYVIIKGAQGDQFYMRSEDPIYVLENNIPIDAKYYLENQLSKPLLRIFEPILGEKASSLLHGDHTRTISMAAPSVGGIMKFAVKVETCLGCKAPIKKGKTALCENCLNRSAELYQRQVAQVNDLEVRFARLWTQCQRCQGSMHQDVICTSRDCPIFYMRIAEHKKLQQSVDLLKRFDEMSW
notes: DNA polymerase delta catalytic subunit Pol3, S. pombe; prey plasmid named pACT-Pol3 in the results and pGAD2F-Pol3 in the methods; also called Gal4-Pol3; pACT-Pol3; source: yeast two-hybrid fusion, in S. cerevisiae CTY10-5d
[1]
  two-hybrid beta-galactosidase activity, % of wild-type Cdc1: 46%
[2]
  two-hybrid beta-galactosidase activity, % of wild-type Cdc1: < 1%
[3]
  two-hybrid beta-galactosidase activity, % of wild-type Cdc1: 48%
[4]
  two-hybrid beta-galactosidase activity, % of wild-type Cdc1: < 1%

— article PMC2734569, “Functional mapping of the fission yeast DNA polymerase δ B-subunit Cdc1 by site-directed and random pentapeptide insertion mutagenesis” (BMC Molecular Biology, 2009)
